Measured values as given in PMC3281653 (The Journal of Biological Chemistry, 2011).
Like-named read-outs stand apart in the source and are kept apart here. Values belong to the molecule of their own block, whether it stands above or below them.

Assays:
[1] = molecular target: RanGAP1-SUMO1/UBC9 (human) (UniProt P46060)
[2] = molecular target: RanGAP1-SUMO1/UBC9 (human) (UniProt P46060); remark: listed apart in the source
[3] = molecular target: UBC9 (human, UniProt P63279); test: crystal structure
Chain of UBC9 (P63279 whole entry): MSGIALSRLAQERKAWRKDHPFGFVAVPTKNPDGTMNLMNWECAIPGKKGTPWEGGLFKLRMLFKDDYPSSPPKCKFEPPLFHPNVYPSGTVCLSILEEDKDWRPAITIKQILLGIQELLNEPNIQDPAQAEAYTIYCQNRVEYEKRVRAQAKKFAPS

Chain of RanGAP1-SUMO1/UBC9 (human) (P46060 419-578, chain 1 of 3): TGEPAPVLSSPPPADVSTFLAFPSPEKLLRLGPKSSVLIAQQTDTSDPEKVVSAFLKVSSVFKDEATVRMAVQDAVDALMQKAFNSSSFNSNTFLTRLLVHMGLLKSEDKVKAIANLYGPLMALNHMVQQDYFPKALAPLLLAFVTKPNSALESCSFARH
Chain of RanGAP1-SUMO1/UBC9 (human) (P63165 18-97, chain 2 of 3, further chain): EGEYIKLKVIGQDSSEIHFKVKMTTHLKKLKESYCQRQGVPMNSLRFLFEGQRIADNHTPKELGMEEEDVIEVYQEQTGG
Chain of RanGAP1-SUMO1/UBC9 (human) (P63279 whole entry, chain 3 of 3, further chain): as the sequence (P63279 whole entry) above

protease protection from SENP1: protection of RanGAP1-SUMO1 against that by IR1 [1]: 16 fold
Molecule: IR1-M-IR2 (RanBP2 residues 2631–2771) (from UniProt P49792 2631-2771) (domain or fragment)

protease protection from SENP1: protection of RanGAP1-SUMO1 against that by IR1 [2]: 144 fold
Molecule: IR2SIM-IR1_(II–V) (domain or fragment)

binding result [3]: binds
B1: IR1 (RanBP2 residues 2631–2695) (domain or fragment)
chain: DVLIVYELTPTAEQKALATKLKLPPTFFCYKNRPDYVSEEEEDDEDFETAVKKLNGKLYLDGSEK
